Results on six substances are retold here after paper PMC2798062.

The term Km denotes the substrate concentration at which the rate is half of its maximum. Usually kcat stands for the number of substrate molecules converted per active site and unit of time at saturation.

Data set [1] relates to C[C@H]1C=C2C=C[C@H](C)[C@H](CC[C@@H](O)C[C@@H](O)CC(=O)O)[C@H]2[C@@H](O)C1. The data set is described as follows: purified protein. It is filed as biochemical, Aspergillus terreus. The note with it: 2 mM DMB-SMMP fixed, 10% DMSO, 25°C.
A further data set deals with CCC(C)(C)C(=O)SCCC(=O)OC. The data set is described as follows: purified protein. The class given is biochemical, Aspergillus terreus. The note with it: 2 mM MJA fixed; 10% DMSO; table header prints mM^-1, text b12 prints mM; 25.0 °C.

As to “LovD G0 (Aspergillus terreus; A86V/C40A/C60N)”, in data set [1] (mutant G1), the Km was 0.74 ± 0.16 mM and the kcat was determined as 0.79 ± 0.03 min⁻¹.

Turning to “LovD G0 (Aspergillus terreus; C40A/C60N)”, in the data set with CCC(C)(C)C(=O)SCCC(=O)OC, the Michaelis-Menten constant (Km) is reported as 0.67 ± 0.12 mM and the kcat stood at 0.66 ± 0.03 min⁻¹. In data set [1], the Km is listed as 0.77 ± 0.17 mM and the kcat was 0.66 ± 0.03 min⁻¹.

Turning to “LovD G0 (Aspergillus terreus; A190T/A86V/C40A/C60N/D12G/G275S/H161Y/K26E/V334F)”, in data set [1] (mutant G7), the Km was found to be 0.70 ± 0.04 mM and the kcat worked out at 4.80 ± 0.06 min⁻¹.

On to “LovD G0 (Aspergillus terreus; A190T/A86V/C40A/C60N/D12G/G275S/H161Y/K26E/L361M/V334D)”, for which, in data set [1] (mutant G6), the Km was determined as 0.70 ± 0.07 mM and the kcat was 3.30 ± 0.06 min⁻¹.

For the substance “LovD G0 (Aspergillus terreus; A190T/A86V/C40A/C60N/D12G/G275S/H161Y/K26E)”, in data set [1] (mutant G5), the Km was 0.74 ± 0.03 mM and the kcat worked out at 2.61 ± 0.03 min⁻¹.

For the substance “LovD G0 (Aspergillus terreus; A190T/A86V/C40A/C60N/D12G/G275S)”, in data set [1] (mutant G3), the Km turned out to be 0.77 ± 0.11 mM and the kcat amounted to 1.86 ± 0.09 min⁻¹.
